Where two headings read alike, the source gives them in different places.
Columns and labels:
SEC [1] = target: the molecule itself; assay: SEC
SEC [2] = target: the molecule itself; assay: SEC; remark: listed apart in the source

B1: Human Prx2, native, reduced (thiol cysteines) (enzyme, UniProt P32119 1-198, looked up)
chain: MASGNARIGKPAPDFKATAVVDGAFKEVKLSDYKGKYVVLFFYPLDFTFVCPTEIIAFSNRAEDFRKLGCEVLGVSVDSQFTHLAWINTPRKEGGLGPLNIPLLADVTRRLSEDYGVLKTDEGIAYRGLFIIDGKGVLRQITVNDLPVGRSVDEALRLVQAFQYTDEHGEVCPAGWKPGSDTIKPNVDDSKEYFSKHN
modifications: cysteines reduced (thiol)
stoichiometry N (SEC [1]): 10

B2: Human Prx2, overoxidized (enzyme, UniProt P32119 1-198, looked up)
chain: MASGNARIGKPAPDFKATAVVDGAFKEVKLSDYKGKYVVLFFYPLDFTFVCPTEIIAFSNRAEDFRKLGCEVLGVSVDSQFTHLAWINTPRKEGGLGPLNIPLLADVTRRLSEDYGVLKTDEGIAYRGLFIIDGKGVLRQITVNDLPVGRSVDEALRLVQAFQYTDEHGEVCPAGWKPGSDTIKPNVDDSKEYFSKHN
modifications: overoxidized (so in the source)
stoichiometry N (SEC [2]): 10
